# Literature values as cited in patent publication US9624506B2, “Glyphosate resistance enhancement” (Keygene N.V., priority 2011, dated 2017).
# B1: T42M: T42M mutation in Salmonella EPSPS enzyme (protein, UniProt P07637 1-427, looked up, variant T42M)
# 3-phosphoshikimate …: MESLTLQPIARVDGAINLPGSKSVSNRALLLAALACGKTALMNLLDSDDVRHMLNALSALGINYTLSADRTRCDITGNGGALRAPGALELFLGNAGTAMRPLAAALCLGQNEIVLTGEPRMKERPIGHLVDSLRQGGANIDYLEQENYPPLRLRGGFTGGDIEVDGSVSSQFLTALLMTAPLAPKDTIIRVKGELVSKPYIDITLNLMKTFGVEIANHHYQQFVVKGGQQYHSPGRYLVEGDASSASYFLAAGAIKGGTVKVTGIGRKSMQGDIRFADVLEKMGATITWGDDFIACTRGELHAIDMDMNHIPDAAMTIATTALFAKGTTTLRNIYNWRVKETDRLFAMATELRKVGAEVEEGHDYIRITPPAKLQHADIGTYNDHRMAMCFSLVALSDTPVTILDPKCTAKTFPDYFEQLARMSTPA
# Tests used:
# [1] = Salmonella EPSPS; cited from earlier work
# [2] = Salmonella EPSPS; cited from earlier work; remark: listed apart in the source
molecule,measurement,setting,value
B1,lower affinity for its normal substrate (PEP),[1],25 fold
same,higher tolerance for glyphosate,[2],26 fold
